Assay results published in patent publication US20060002935A1.

Assays:
[1] = molecular target: human TNFR1 on HeLa cells (human) (UniProt P19438); experiment: cell-based or functional assay
[2] = molecular target: hen egg lysozyme (hen) (UniProt P00698); experiment: ELISA on HEL-coated plate, detection via myc tag (9e10) and anti mouse IgG-HRP
Sequence of hen egg lysozyme (hen) (P00698 19-147): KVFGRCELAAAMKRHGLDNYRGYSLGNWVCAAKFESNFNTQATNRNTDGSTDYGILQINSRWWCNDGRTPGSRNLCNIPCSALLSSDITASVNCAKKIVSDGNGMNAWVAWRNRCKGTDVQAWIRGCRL

Sequence of human TNFR1 on HeLa cells (human) (P19438 30-455): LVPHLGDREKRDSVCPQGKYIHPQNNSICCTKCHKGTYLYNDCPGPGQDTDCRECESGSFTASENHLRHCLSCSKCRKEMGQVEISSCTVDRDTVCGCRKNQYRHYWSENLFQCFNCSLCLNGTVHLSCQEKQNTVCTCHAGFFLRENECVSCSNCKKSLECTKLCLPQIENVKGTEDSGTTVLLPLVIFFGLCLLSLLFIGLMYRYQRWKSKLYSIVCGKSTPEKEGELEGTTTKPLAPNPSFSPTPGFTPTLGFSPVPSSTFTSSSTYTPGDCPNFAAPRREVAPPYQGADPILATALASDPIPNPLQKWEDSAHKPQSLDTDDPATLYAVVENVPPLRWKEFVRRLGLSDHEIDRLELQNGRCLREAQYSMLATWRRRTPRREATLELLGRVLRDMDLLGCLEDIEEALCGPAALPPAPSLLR

Row | HeLa IL-8 Cell Assay, Activity (IC50) [1] [nM] | ELISA signal [2] | Binder
1 | 20 | – | TAR2h-10-55 (protein) EVQLLESGGGLVQPGGSLRLSCAASGFPFEWYWMGWVRQAPGKGLEWVSAISGSGDSTYYADSVKGRFTISRDNSKNTLYQQMNSLRAEDAAVYYCAKVKLGGGPNFGYRGQGTLVTVSS
2 | – | 0.154 | VH CH/VH CK dual specific Fab like fragment (HEL4 CH / TAR2-5 CK) (bispecific antibody, from a related filing, V domains shown, left off: a dimerising Fc or GST; small tags and cut ends) V domain 1: EVQLLESGGGLVQPGGSLRLSCAASGFRISDEDMGWVRQAPGKGLEWVSSIYGPSGSTYYADSVKGRFTISRDNSKNTLYLQMNSLRAEDTAVYYCASALEPLSEPLGFWGQGTLVTVSS V domain 2: EVQLLESGGGLVQPGGSLRLSCAASGFTFDLYNMFWVRQAPGKGLEWVSFISQTGRLTWYADSVKGRFTISRDNSKNTLYLQMNSLRAEDTAVYYCAKTLEDFDYWGQGTLVTVSS
